Source: patent US20070134249A1 (GENITOPE, published 2007)

Experiments:
[1] = biological target: T1, PIN149 fully human Id protein (HV3-23 / KV4-1) (human); experiment: SPR (BIACORE 2000); mAb captured on anti-mouse surface, fully human Id protein as analyte, 25 C
T1 construct: Recombinant patient-derived idiotype immunoglobulin used as antigen; also called PIN149 Id protein; Immunogen (for 3C9, 6C9, 10H7, 15E1); not shown: human immunoglobulin heavy chain constant region, isotype G3 (HCG3); human immunoglobulin kappa light chain constant region (KC)
T1 sequence (VH, as listed by the source, chain 1 of 2): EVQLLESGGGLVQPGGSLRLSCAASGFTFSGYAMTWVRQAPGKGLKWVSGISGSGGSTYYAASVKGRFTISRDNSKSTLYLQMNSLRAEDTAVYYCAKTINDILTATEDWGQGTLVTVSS
T1 sequence (VL, as listed by the source, chain 2 of 2): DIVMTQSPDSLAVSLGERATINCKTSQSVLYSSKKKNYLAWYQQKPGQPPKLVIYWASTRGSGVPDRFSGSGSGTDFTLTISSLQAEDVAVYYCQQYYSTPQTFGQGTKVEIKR
Method: (§1) Binding constants were also determined for three of the sequenced clones (3C9, 10H7, and 20H5), as well as for two additional clones (6C9 and 15E1). The association and disassociation rates were measured by surface plasmon resonance using a BIACORE 2000 machine.
(§2) In addition, based on ELISA results, PIN185 was used as a positive control Id protein for 10H7 and 15E1 and a negative control Id protein for 3C9 and 6C9 and PIN149 was used as a non-binding Id protein for 20H5. Each mAb was captured onto an anti-mouse surface and tested for binding to the fully human Id protein. Following the mAb capture phase of the assay for the (@2 ug/ml), the fully human Id proteins were all diluted to a starting concentration of 250 nM and tested in a three fold dilution series. Each concentration was tested in duplicate. The running buffer contained PBS plus 0.005% tween-20 and 0.1 mg/ml BSA as a carrier. Binding data were collected at 25° C. […] The other data sets all fit well to a single site interaction model.

576 = biological target: T2, 576; experiment: ELISA
T2 construct: H3-23 L1-51; also called PIN576
Excerpt: (§3) Before specificity screening, all of the clonal immunogen-positive hybridoma supernatants were re-screened on the immunogen, a non-family member Id protein, and KLH, if animals were immunized with Id protein that has been conjugated KLH. As described above, this screen identifies HC-specific clones but not mAbs against the light chain constant region. Clones identified positive to the immunogen and KLH were […]. Those found positive to the immunogen but not to the non-family member Id protein or KLH were tittered on the immunogen. In addition to normalizing for different binding affinities and concentrations, each hybridoma supernatant was titered on the fully human form of the Id protein used as the immunogen(s) for the V regions. The titer or dilution resulting in an ELISA absorbance of 2.5 to 3 OD after 30 min. incubation time was then used. Hybridoma specificity was determined by screening against available Id proteins expressing the same HV and KV or LV as well as different HV, KV and LV. The final ELISA results are expressed as follows: 0 (<0.5 OD), 1 (0.5-1.0 OD), or 4 (1-4 OD). Positive hybridoma supernatants are categorized according to specificity: anti-Id, anti-constant region (HC, KC or LC), or V region (HV, KV, LV family or family member).
(§4) In general, the fully human Id protein or proteins containing the immunogen V regions were coated onto 96-well ELISA plates at 2.5-5 ug/mL in carbonate buffer pH 9.6 and incubated at 4° C. for up to 14 days. On the day of the ELISA, plates were brought to RT and blocked with Tris-Tween-20, pH 7.6 for 15-60 min. at RT. Following a NaCl and Triton X-100 wash, diluted hybridoma cell culture supernatants were incubated overnight at 4° C. Hybridoma supernatant dilutions ranged from 1:2 to 1:25 and were prepared in PBS with 5% BSA. Plates were washed and incubated with HRP-conjugated goat anti-mouse IgG-specific detecting antibody. A chromogenic substrate (TMB) was used to measure the amount of mouse antibody bound to each well. The reaction was stopped at or before 30 minutes with IN H2SO4 and plates were read immediately. Absorbency readings at 450 nm ranging between 0-4 OD and using Molecular Devices plate reader and SOFTMAX PRO software.

571 = biological target: T3, 571; experiment: ELISA
T3 construct: H3-23 K3-11; also called PIN571
Excerpt: as §3, §4

210 = biological target: T4, 210; experiment: ELISA
T4 construct: H3-23 K3-11; also called PIN210
Excerpt: as §3, §4

778 = biological target: T5, 778; experiment: ELISA
T5 construct: H3-23 K3-11; also called PIN778
Excerpt: as §3, §4

850 = biological target: T6, 850; experiment: ELISA
T6 construct: H3-23 K2-30; also called PIN850
Excerpt: as §3, §4

232 = biological target: T7, 232; experiment: ELISA
T7 construct: H3-23 K1-6; also called PIN232
Excerpt: as §3, §4

128 = biological target: T8, 128; experiment: ELISA
T8 construct: H3-23 K1-27; also called PIN128
Excerpt: as §3, §4

[2] = biological target: T1, PIN149 fully human Id protein (HV3-23 / …); experiment: ELISA
Excerpt: as §3, §4

203 = biological target: T9, 203; experiment: ELISA
T9 construct: H3-23 L1-47; also called PIN203
Excerpt: as §3, §4

540 = biological target: T10, 540; experiment: ELISA
T10 construct: H3-23 K3-20; also called PIN540
Excerpt: as §3, §4

617 = biological target: T11, 617; experiment: ELISA
T11 construct: H3-23, VL 1-44, LC printed K; also called PIN617
Excerpt: as §3, §4

213 = biological target: T12, 213; experiment: ELISA
T12 construct: H3-23 L1-51; also called PIN213
Excerpt: as §3, §4

352 = biological target: T13, 352; experiment: ELISA
T13 construct: H3-23 K1-39; also called PIN352
Excerpt: as §3, §4

591 = biological target: T14, 591; experiment: ELISA
T14 construct: H3-23 K4-1; also called PIN591
Excerpt: as §3, §4

551 = biological target: T15, 551; experiment: ELISA
T15 construct: H3-23 L1-40; also called PIN551
Excerpt: as §3, §4

547 = biological target: T16, 547; experiment: ELISA
T16 construct: also called PIN547
Excerpt: as §3, §4

522 = biological target: T17, 522; experiment: ELISA
T17 construct: H3-23 L1-40; also called PIN522
Excerpt: as §3, §4

834 = biological target: T18, 834; experiment: ELISA
T18 construct: H3-23 K1-5; also called PIN834
Excerpt: as §3, §4

[3] = biological target: T19, PIN185 fully human Id protein (human); experiment: SPR (BIACORE 2000); mAb captured on anti-mouse surface, fully human Id protein as analyte, 25 C
T19 construct: Patient-derived idiotype immunoglobulin used as control antigen in SPR
Method: as §1, §2

659 = biological target: T20, 659; experiment: ELISA
T20 construct: H3-21 K4-1; also called PIN659
Excerpt: as §3, §4

839 = biological target: T21, 839; experiment: ELISA
T21 construct: H3-23 K4-1; also called PIN839
Excerpt: as §3, §4

529 = biological target: T22, 529; experiment: ELISA
T22 construct: H3-48 K4-1; also called PIN529
Excerpt: as §3, §4

628 = biological target: T23, 628; experiment: ELISA
T23 construct: fully human Id protein; also called PIN628
T23 sequence (VH, as listed by the source, chain 1 of 2): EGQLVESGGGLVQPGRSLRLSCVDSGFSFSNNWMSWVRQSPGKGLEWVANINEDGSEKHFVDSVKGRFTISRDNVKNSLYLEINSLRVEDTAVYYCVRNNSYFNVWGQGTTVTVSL
T23 sequence (VL, as listed by the source, chain 2 of 2): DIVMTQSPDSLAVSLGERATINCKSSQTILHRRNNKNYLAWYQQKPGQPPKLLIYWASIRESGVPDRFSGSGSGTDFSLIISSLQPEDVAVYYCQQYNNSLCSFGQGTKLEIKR
Excerpt: as §3, §4

[4] = biological target: T19, PIN185 fully human Id protein; experiment: ELISA
Excerpt: as §3, §4

1088 = biological target: T24, 1088; experiment: ELISA
T24 construct: H2-5 K4-1; also called PIN1088
Excerpt: as §3, §4

763 = biological target: T25, 763; experiment: ELISA
T25 construct: H4-59 K4-1; also called PIN763
Excerpt: as §3, §4

112 = biological target: T26, 112; experiment: ELISA
T26 construct: H4-39 K4-1; also called PIN112
Excerpt: as §3, §4

950 = biological target: T27, 950; experiment: ELISA
T27 construct: H4-59 K4-1; also called PIN950
Excerpt: as §3, §4

791 = biological target: T28, 791; experiment: ELISA
T28 construct: H3-30 K4-1; also called PIN791
Excerpt: as §3, §4

898 = biological target: T29, 898; experiment: ELISA
T29 construct: H3-15 K4-1; also called PIN898
Excerpt: as §3, §4

792 = biological target: T30, 792; experiment: ELISA
T30 construct: H1-3 K4-1; also called PIN792
Excerpt: as §3, §4

844 = biological target: T31, 844; experiment: ELISA
T31 construct: H3-7 K4-1; also called PIN844
Excerpt: as §3, §4

199 = biological target: T32, 199; experiment: ELISA
T32 construct: H3-7 K4-1; also called PIN199
Excerpt: as §3, §4

913 = biological target: T33, 913; experiment: ELISA
T33 construct: fully human Id protein; also called PIN913
T33 sequence (heavy, as listed by the source): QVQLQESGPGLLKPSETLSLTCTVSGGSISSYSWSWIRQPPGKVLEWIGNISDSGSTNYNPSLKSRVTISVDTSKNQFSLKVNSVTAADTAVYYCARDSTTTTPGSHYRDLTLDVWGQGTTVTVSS
Excerpt: as §3, §4

1154 = biological target: T34, 1154; experiment: ELISA
T34 construct: H4-61 K4-1; also called PIN1154
Excerpt: as §3, §4

1014 = biological target: T35, 1014; experiment: ELISA
T35 construct: H3-53 K4-1; also called PIN1014
Excerpt: as §3, §4

1145 = biological target: T36, 1145; experiment: ELISA
T36 construct: H3-11 K4-1; also called PIN1145
Excerpt: as §3, §4

1023 = biological target: T37, 1023; experiment: ELISA
T37 construct: H4-4 K4-1; also called PIN1023
Excerpt: as §3, §4

626 = biological target: T38, 626; experiment: ELISA
T38 construct: H5-51 K4-1; also called PIN626
Excerpt: as §3, §4

179 = biological target: T39, 179; experiment: ELISA
T39 construct: H3-11 K4-1; also called PIN179
Excerpt: as §3, §4

952 = biological target: T40, 952; experiment: ELISA
T40 construct: H3-66 K4-1; also called PIN952
Excerpt: as §3, §4

204 = biological target: T41, 204; experiment: ELISA
T41 construct: H3-15 K4-1; also called PIN204
Excerpt: as §3, §4

170 = biological target: T42, 170; experiment: ELISA
T42 construct: H4-34 K4-1; also called PIN170
Excerpt: as §3, §4

987 = biological target: T43, 987; experiment: ELISA
T43 construct: H3-23 K4-1; also called PIN987
Excerpt: as §3, §4

192 = biological target: T44, 192; experiment: ELISA
T44 construct: H5-51 K4-1; also called PIN192
Excerpt: as §3, §4

B1: mAb clone 3C9 (antibody, V domains shown)
VH: EVQLQQSGPELEKPGASVKISCKASGYSFTAYNMNWVKQNNGKSLEWIGNIDPYHGGTNYNQKFKGKATLTVDKSSSTAYMQLKSLTSEDYAVYYCARGGGDWSWFAYWGQGTLVTVSA
VL: DIVMTQSHKFMSTSVGDRVSITCKASQDVNTAVAWYQQKPGQSPKVLIYWASNRHTGVPDRFTGSGSGTDYTLTISSMQAEDLALYYCHQHYSTPWTFGGGTKLEIER
notes: Mouse hybridoma mAb, fusions 13/14 (immunogen PIN149 chimera-KLH); also called anti-IGHV3-23 monoclonal 3C9
Kd [1]: 1.78 nM
koff [1]: 0.000134 s⁻¹
kon [1]: 74900 M⁻¹ s⁻¹
grade 576: 4
grade 571: 4
grade 210: 4
grade 778: 4
grade 850: 4
grade 232: 4
grade 128: 4
grade [2]: 4
grade 203: 4
grade 540: 4
grade 617: 4
grade 213: 1
grade 352: 4
grade 591: 4
grade 551: 4
grade 547: 4
grade 522: 4
grade 834: 4

B2: mAb clone 10H7 (antibody, V domains shown)
VH: EVQLVESGGGLVKPGGSLKLSCTASGFTFSSYAMSWVRQSPEKRLEWVAEISSGGIHTYYSDTVTGRFSISRDNAKNSTLYLEMNSLRSEDTAIYYCARETTGTWGQGTLVTVSA
VL: QIVLTQSPAIMSASPGEKVTMTCSVSSSITYMHWFRQKPGTSPKLWIYTTSNLASGVPARFSGSGSGTSYSLTISRMEAEDAATYYCQQRSRYPFTFGSGTKLEIKR
notes: Mouse hybridoma mAb, fusions 13/14 (immunogen PIN149 chimera-KLH)
Kd [3]: 3 nM
koff [3]: 9.9e-05 s⁻¹
kon [3]: 33200 M⁻¹ s⁻¹
Kd [1]: 0.83 nM
koff [1]: 3.8e-05 s⁻¹
kon [1]: 45400 M⁻¹ s⁻¹
grade 659: 4
grade 839: 4
grade 529: 4
grade 628: 4
grade [4]: 4
grade 1088: 4
grade 763: 4
grade 112: 4
grade 950: 4
grade [2]: 4
grade 791: 4
grade 898: 4
grade 792: 4
grade 844: 4
grade 199: 4
grade 913: 4
grade 1154: 4
grade 1014: 4
grade 1145: 4
grade 591: 4
grade 1023: 4
grade 626: 4
grade 179: 4
grade 952: 4
grade 204: 4
grade 170: 4
grade 987: 4
grade 192: 4
